{"source": "paper PMC6382874", "about": "“Succinylation-dependent mitochondrial translocation of PKM2 promotes cell survival in response to nutritional stress” (Cell Death & Disease, 2019)", "binders": {"B1": {"name": "GST-VDAC3 (natural protein, human, UniProt Q9Y277 1-283, looked up)", "chain": "MCNTPTYCDLGKAAKDVFNKGYGFGMVKIDLKTKSCSGVEFSTSGHAYTDTGKASGNLETKYKVCNYGLTFTQKWNTDNTLGTEISWENKLAEGLKLTLDTIFVPNTGKKSGKLKASYKRDCFSVGSNVDIDFSGPTIYGWAVLAFEGWLAGYQMSFDTAKSKLSQNNFALGYKAADFQLHTHVNDGTEFGGSIYQKVNEKIETSINLAWTAGSNNTRFGIAAKYMLDCRTSLSAKVNNASLIGLGYTQTLRPGVKLTLSALIDGKNFSAGGHKVGLGFELEA", "notes": "VDAC3, human cDNA cloned into pGEX-4T-1; also called GST-tagged-VDAC3; source: E. coli BL21, purified (GST agarose beads); the pull-down method also calls it in vitro translated; not shown: GST, N-terminal, kept"}}, "molecular_target": "T1, His-PKM2 (human, UniProt P14618 1-531)", "T1 construct": "Pyruvate kinase M2 (PKM2), human cDNA cloned into pET28a(+); also called His-tagged-PKM2; source: E. coli BL21, purified (Ni–agarose beads); not shown: His-tag, N-terminal, kept", "T1 sequence (P14618 whole entry)": "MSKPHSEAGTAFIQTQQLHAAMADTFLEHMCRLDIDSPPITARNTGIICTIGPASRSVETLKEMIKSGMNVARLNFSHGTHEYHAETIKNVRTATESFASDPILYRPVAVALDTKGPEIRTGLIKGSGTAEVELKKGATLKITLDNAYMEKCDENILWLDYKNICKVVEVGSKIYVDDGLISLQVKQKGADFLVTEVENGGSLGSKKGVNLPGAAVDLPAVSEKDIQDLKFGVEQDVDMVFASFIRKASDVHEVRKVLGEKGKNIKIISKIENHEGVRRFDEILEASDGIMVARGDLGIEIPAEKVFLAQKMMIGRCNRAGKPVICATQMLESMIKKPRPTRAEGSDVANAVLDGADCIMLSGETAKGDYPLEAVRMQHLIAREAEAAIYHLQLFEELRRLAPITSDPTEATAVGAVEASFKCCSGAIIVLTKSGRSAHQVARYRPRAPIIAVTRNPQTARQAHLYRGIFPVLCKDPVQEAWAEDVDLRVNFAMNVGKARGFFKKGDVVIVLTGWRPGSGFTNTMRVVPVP", "assay": "pull-down; in vitro binding of His-PKM2 (2.5 μg) and GST-VDAC3, Ni–NTA agarose, western blot with anti-GST or anti-His antibody", "conditions": "both partners purified"}
{"binder": "B1", "values": [{"measurement": "binding result", "result": "binds"}]}
